Earlier results in PMC12787518.
Like-named read-outs stand apart in the source and are kept apart here.

Legend:
[1] = molecular target: Asp70 (UniProt position 70, KLFNQDVDAAV); settings: folded (native, Asp70-His31 salt bridge formed)
[2] = molecular target: His31 (UniProt position 31, TIGIGHLLTKS)

T4 lysozyme (Enterobacteria phage T4 (Tequatrovirus T4))
pKa [1]: 0.5 | pKa ([2]; folded (native, Asp70-His31 salt bridge formed)): 9.1 | pKa ([2]; unfolded (before folding, no salt bridge), inferred from the wording 'during ... folding'): 6.8
